Results published in patent publication US20250170255A1 (Daiichi Sankyo, published 2025).

How the values were obtained:
[1] = molecular target: T1, biotinylated human TROP2 antigen (human, UniProt P09758 27-274, C-terminal Avi tag sequence biotinylated); experiment: ELISA, immobilised biotinylated human TROP2 antigen, anti-FLAG-HRP detection; after MMP1 pre-treatment (mask linker cleaved)
T1 construct: extracellular domain
T1 sequence (looked up): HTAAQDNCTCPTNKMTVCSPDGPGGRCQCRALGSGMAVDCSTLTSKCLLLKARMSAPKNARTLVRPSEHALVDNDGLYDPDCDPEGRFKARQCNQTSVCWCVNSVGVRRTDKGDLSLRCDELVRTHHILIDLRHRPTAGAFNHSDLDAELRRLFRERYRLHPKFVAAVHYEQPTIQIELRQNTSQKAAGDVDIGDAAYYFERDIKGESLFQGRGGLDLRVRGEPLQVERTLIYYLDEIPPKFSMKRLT
Procedure: (§1) NeutrAvidin (Thermo Fisher Scientific) diluted to 1 μg/ml with PBS was added at 50 μl/well to a 96-well Maxi-sorp plate (Black, Nunc) and immobilized at 4° C. overnight. The plate was washed with PBS containing 0.05% (w/v) Tween-20 (BioRad) (ELISA buffer) and then blocked with Blocker Casein (Thermo Fisher Scientific). The plate was washed with ELISA buffer, the biotinylated human TROP2 antigen (Accession Number: P09758; the extracellular domain was purified by the method known to a person skilled in the art and the C-terminal Avi tag sequence was then biotinylated) diluted to 1 μg/ml with PBS was added at 50 μl/well, and the resultant was then agitated for 30 minutes at room temperature. […] The plate was washed with ELISA buffer, the SuperSignal Pico ELISA chemiluminescent substrate (Thermo Fisher Scientific) was added, and chemiluminescence 10 minutes thereafter was then assayed using a plate reader.
(§2) The resultant was then added to the plate comprising the human TROP2 antigen immobilized thereon at 50 μl/well. The bound scFv was detected using the HRP-labeled anti-FLAG antibody (Sigma-Aldrich) diluted to 5,000-fold with ELISA buffer.

[2] = molecular target: T1, biotinylated human TROP2 antigen; experiment: ELISA, anti-FLAG detection, with and without MMP1
Procedure: as §2
The antibody was adjusted to 1 μM with the use of MMP buffer, MMP1 was added to the final concentration of 1 μM or 0 μM, and the reaction was allowed to proceed at 37° C. for 15 minutes. Thereafter, the antibody with the concentration thereof being adjusted with ELISA buffer was added to the wells.

[3] = molecular target: T1, biotinylated human TROP2 antigen; experiment: ELISA, immobilised biotinylated human TROP2 antigen, anti-FLAG-HRP detection; without MMP1
Procedure: as §1, §2

[4] = molecular target: T1, biotinylated human TROP2 antigen; experiment: ELISA, immobilised biotinylated human TROP2 antigen, anti-FLAG-HRP detection; after MMP1 pre-treatment (mask linker cleaved); remark: listed apart in the source
Procedure: as §1, §2

[5] = molecular target: T2, TROP2 on FaDu cells (human, UniProt P09758 27-323); experiment: cell-based or functional assay
T2 sequence (looked up): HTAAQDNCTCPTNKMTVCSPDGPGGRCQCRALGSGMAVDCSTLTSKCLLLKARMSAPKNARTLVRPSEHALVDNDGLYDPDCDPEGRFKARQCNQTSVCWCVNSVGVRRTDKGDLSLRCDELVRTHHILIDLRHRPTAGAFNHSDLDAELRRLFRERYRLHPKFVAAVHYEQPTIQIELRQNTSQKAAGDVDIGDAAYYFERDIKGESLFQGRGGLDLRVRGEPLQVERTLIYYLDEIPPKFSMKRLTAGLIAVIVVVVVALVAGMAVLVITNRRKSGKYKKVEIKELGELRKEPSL

[6] = molecular target: T1, biotinylated human TROP2 antigen; experiment: ELISA, immobilised biotinylated human TROP2 antigen, chemiluminescence; after MMP1 pre-treatment
Procedure: (§3) NeutrAvidin (Thermo Fisher Scientific) diluted to 1 μg/ml with PBS was added at 50 μl/well to a 96-well Maxi-sorp plate (Black, Nunc) and immobilized at 4° C. overnight. The plate was washed with PBS containing 0.05% (w/v) Tween-20 (BioRad) (ELISA buffer) and then blocked with Blocker Casein (Thermo Fisher Scientific). The plate was washed with ELISA buffer, the biotinylated human TROP2 antigen (Accession Number: P09758; the extracellular domain was purified by the method known to a person skilled in the art and the C-terminal Avi tag sequence was then biotinylated) diluted to 1 μg/ml with PBS was added at 50 μl/well, and the resultant was then agitated for 30 minutes at room temperature. […] The plate was washed with ELISA buffer, 50 μl of the horseradish peroxidase (HRP)-labeled anti-human IgG antibody (Jackson Immuno Research Laboratories) diluted to 2,500-fold with ELISA buffer was added, and the resultant was then agitated for 30 minutes at room temperature. The plate was washed with ELISA buffer, the SuperSignal Pico ELISA chemiluminescent substrate (Thermo Fisher Scientific) was added, and chemiluminescence 10 minutes thereafter was then assayed using a plate reader.

[7] = molecular target: T1, biotinylated human TROP2 antigen; experiment: ELISA, immobilised biotinylated human TROP2 antigen, chemiluminescence; without MMP1
Procedure: as §3

[8] = molecular target: T1, biotinylated human TROP2 antigen; experiment: ELISA, immobilised biotinylated human TROP2 antigen, chemiluminescence
Procedure: as §3

[9] = molecular target: T1, biotinylated human TROP2 antigen; experiment: ELISA pH 7.5 against pH 5.5
[10] = molecular target: T1, biotinylated human TROP2 antigen; experiment: ELISA with and without MMP1
[11] = molecular target: T1, biotinylated human TROP2 antigen; experiment: ELISA, immobilised biotinylated human TROP2 antigen, chemiluminescence; after MMP1 pre-treatment (mask linker cleaved)
[12] = molecular target: T1, biotinylated human TROP2 antigen; experiment: ELISA, immobilised biotinylated human TROP2 antigen, chemiluminescence; pH 7.5
[13] = molecular target: T1, biotinylated human TROP2 antigen; experiment: ELISA, immobilised biotinylated human TROP2 antigen, chemiluminescence; pH 5.5
[14] = molecular target: T1, biotinylated human TROP2 antigen; experiment: ELISA, immobilised biotinylated human TROP2 antigen, chemiluminescence; pH 7.5; remark: listed apart in the source
[15] = molecular target: T1, biotinylated human TROP2 antigen; experiment: ELISA, immobilised biotinylated human TROP2 antigen, chemiluminescence; pH 5.5; remark: listed apart in the source
[16] = molecular target: T1, biotinylated human TROP2 antigen; experiment: ELISA, immobilised biotinylated human TROP2 antigen, chemiluminescence; pH 7.5; remark: listed apart in the source
Procedure: (§4) The plate was washed with PBS containing 0.05% (w/v) Tween-20 (BioRad) (ELISA buffer) and then blocked with Blocker Casein (Thermo Fisher Scientific). The plate was washed with ELISA buffer, the biotinylated human TROP2 antigen (Accession Number: P09758; the extracellular domain was purified by the method known to a person skilled in the art and the C-terminal Avi tag sequence was then biotinylated) diluted to 1 μg/ml with PBS was added at 50 μl/well, and the resultant was then agitated for 30 minutes at room temperature. […] The plate was washed with ELISA buffer, 50 μl of the horseradish peroxidase (HRP)-labeled anti-human IgG antibody (Jackson Immuno Research Laboratories) diluted to 2,500-fold with ELISA buffer was added, and the resultant was then agitated for 30 minutes at room temperature. The plate was washed with ELISA buffer, the SuperSignal Pico ELISA chemiluminescent substrate (Thermo Fisher Scientific) was added, and chemiluminescence 10 minutes thereafter was then assayed using a plate reader. […]

[17] = molecular target: T1, biotinylated human TROP2 antigen; experiment: as above; remark: listed apart in the source
Procedure: as §4

[18] = molecular target: T1, biotinylated human TROP2 antigen; experiment: ELISA, immobilised biotinylated human TROP2 antigen, chemiluminescence; pH 6.5
[19] = molecular target: T1, biotinylated human TROP2 antigen; experiment: ELISA, immobilised biotinylated human TROP2 antigen, chemiluminescence; pH 7.5; remark: listed apart in the source
[20] = molecular target: T1, biotinylated human TROP2 antigen; experiment: as above; remark: listed apart in the source
Procedure: as §4

[21] = molecular target: T1, biotinylated human TROP2 antigen; experiment: ELISA, immobilised biotinylated human TROP2 antigen, chemiluminescence; pH 5.5; remark: listed apart in the source
[22] = molecular target: T1, biotinylated human TROP2 antigen; experiment: ELISA, immobilised biotinylated human TROP2 antigen, chemiluminescence; pH 7.5; remark: listed apart in the source
Procedure: as §4

[23] = molecular target: T1, biotinylated human TROP2 antigen; experiment: ELISA, immobilised biotinylated human TROP2 antigen, chemiluminescence; pH 5.5; remark: listed apart in the source
Procedure: as §4

[24] = molecular target: T1, biotinylated human TROP2 antigen; experiment: ELISA, immobilised biotinylated human TROP2 antigen, chemiluminescence; without MMP1; remark: listed apart in the source
Procedure: as §3

[25] = molecular target: T1, biotinylated human TROP2 antigen; experiment: ELISA, immobilised biotinylated human TROP2 antigen, chemiluminescence; after MMP1 pre-treatment (mask linker cleaved); remark: listed apart in the source
Procedure: as §3

B1: MHT1001 (scFv)
scFv: AMGYLALKHPWPGLAENSGSGGGGSVLVPMAMMASGGSDVNSQVQLVQSGAEVKKPGASVKVSCKASGYTFTTAGMQWVRQAPGQGLEWMGWINTHSGVPKYAEDFKGRVTISADTSTSTAYLQLSSLKSEDTAVYYCARSGFGSSYWYFDVWGQGTLVTVSSGGGGSGGGGSGGGGSDIQMTQSPSSLSASVGDRVTITCKASQDVSTAVAWYQQKPGKAPKLLIYSASYRYTGVPSRFSGSGSGTDFTLTISSLQPEDFAVYYCQQHYITPLTFGQGTKLEIKRGAPSGDYKDDDDKGAAAHHHHHH
[1]
  EC50 (read off the curve): ~8 nM
[2]
  EC50 ratio of binding intensity (without MMP1 / with MMP1): 7.9

B2: MHT1002 (scFv)
scFv: AMGYLALKHPWPGLAENSGSGGGGSVLVPMAMMASGGSDVNSDIQMTQSPSSLSASVGDRVTITCKASQDVSTAVAWYQQKPGKAPKLLIYSASYRYTGVPSRFSGSGSGTDFTLTISSLQPEDFAVYYCQQHYITPLTFGQGTKLEIKRGGGGSGGGGSGGGGSQVQLVQSGAEVKKPGASVKVSCKASGYTFTTAGMQWVRQAPGQGLEWMGWINTHSGVPKYAEDFKGRVTISADTSTSTAYLQLSSLKSEDTAVYYCARSGFGSSYWYFDVWGQGTLVTVSSGAPSGDYKDDDDKGAAAHHHHHH
notes: Mimotope peptide, MMP cleavable linker, HT1-11 scFv, FLAG tag, His tag
[2]
  EC50 ratio of binding intensity (without MMP1 / with MMP1): 4.3
[3]
  EC50 (read off the curve): ~10 nM
[4]
  EC50 (read off the curve): ~3 nM

B3: MHT1808-PBD-ADC (antibody, human IgG1, kappa)
heavy: not shown
light: DIQMTQSPSSLSASVGDRVTITCKASQDVSTAVAWYQQKPGKAPKLLIYSASYRYTGVPSRFSGSGSGTDFTLTISSLQPEDFAVYYCQQHYITPLTFGQGTKLEIKRTVAAPSVFIFPPSDEQLKSGTASVVCLLNNFYPREAKVQWKVDNALQSGNSQESVTEQDSKDSTYSLSSTLTLSKADYEKHKVYACEVTHQGLSSPVTKSFNRGEC
modifications: N297 glycan remodelled to azide-bearing MSG1-type glycan and conjugated to Linker 2 (PBD drug linker); average number of drugs bound 1.9
[5]
  in vitro growth inhibitory activity on FaDu cells, EC50 ratio (pH 7.4/pH 5.5): 10.7

B4: anti-TROP2 antibody HT1-11 (antibody)
heavy: not shown
light: B3 light
notes: Known antibody of WO 2015/098099; Full-length entries
[6]
  EC50 (read off the curve): ~0.5 nM
[7]
  EC50 (read off the curve): ~0.5 nM
[8]
  EC50 (read off the curve): ~0.6 nM

B5: MHT1221-PBD-ADC (antibody, human IgG1, kappa)
heavy: not shown
light: B3 light
modifications: N297 glycan remodelled to azide-bearing MSG1-type glycan and conjugated to Linker 2 (PBD drug linker); average number of drugs bound 1.9
[5]
  in vitro growth inhibitory activity on FaDu cells, EC50 ratio (pH 7.4/pH 5.5): 1.9

B6: anti-TROP2 masked antibody MHT1805 (antibody)
heavy: not shown
light: B3 light
notes: His cluster linker; Full-length entries
[9]
  EC50 ratio (neutral pH conditions/acidic pH conditions): 2.3

B7: anti-TROP2 masked antibody MHT1811 (antibody)
heavy: not shown
light: B3 light
notes: Full-length entries
[10]
  EC50 ratio (without the addition of MMP1/with the addition of MMP1): 48.4
[11]
  EC50 (read off the curve): ~0.6 nM
[12]
  EC50 (read off the curve): ~30 nM
[9]
  EC50 ratio (neutral pH conditions/acidic pH conditions): 28.1
[13]
  EC50 (read off the curve): ~1 nM

B8: anti-TROP2 masked antibody MHT1810 (antibody)
heavy: not shown
light: B3 light
notes: His at every other position in the linker; Full-length entries; also called HMT1810
[14]
  EC50 (read off the curve): ~60 nM
[15]
  EC50 (read off the curve): ~7 nM
[9]
  EC50 ratio (neutral pH conditions/acidic pH conditions): 7.8

B9: anti-TROP2 masked antibody MHT1804 (antibody)
heavy: not shown
light: B3 light
notes: as for B6
[9]
  EC50 ratio (neutral pH conditions/acidic pH conditions): 3.6

B10: anti-TROP2 masked antibody MHT1221 (antibody)
heavy: not shown
light: B3 light
notes: No His cluster; Full-length entries
[16]
  EC50 (read off the curve): ~50 nM
[9]
  EC50 ratio (neutral pH conditions/acidic pH conditions): 1.7

B11: anti-TROP2 masked antibody MHT1806 (antibody, human IgG1, kappa)
heavy: not shown
light: B3 light
[17]
  EC50 (read off the curve): ~200 nM
[18]
  EC50 (read off the curve): ~50 nM
[19]
  EC50 (read off the curve): ~200 nM
[9]
  EC50 ratio (neutral pH conditions/acidic pH conditions): 38.8

B12: anti-TROP2 masked antibody MHT1803 (antibody)
heavy: not shown
light: B3 light
notes: as for B6
[20]
  EC50 (read off the curve): ~100 nM
[21]
  EC50 (read off the curve): ~30 nM
[9]
  EC50 ratio (neutral pH conditions/acidic pH conditions): 3.9

B13: anti-TROP2 masked antibody MHT1809 (antibody)
heavy: not shown
light: B3 light
notes: as for B6
[22]
  EC50 (read off the curve): ~60 nM
[23]
  EC50 (read off the curve): ~5 nM
[9]
  EC50 ratio (neutral pH conditions/acidic pH conditions): 11.4

B14: anti-TROP2 masked antibody MHT1007 (antibody)
heavy: not shown
light: B3 light
notes: IgG-type; MHT1001 mimotope peptide and MMP cleavable linker fused to the heavy chain; Full-length entries
[24]
  EC50 (read off the curve): ~30 nM
[10]
  EC50 ratio of binding intensity (without MMP1 / with MMP1): 104
[25]
  EC50 (read off the curve): ~0.3 nM
